Test: soluble on expression in E. coli; label from the status in PepcDB or PDB records

Sequence	soluble on expression in E. coli
MGSDKIHHHHHHLCLIKPGLKVLEIGCGTGRVLKPLLESGASVVGVDISHEMLALAHNKLASFCDSGALRLLNHNFVYSSIPERFDRVFVTFYTFNYLLSYENALSFLKNIYSSMNDGAVLLMDMFFPSIYHNPAIEGKWQQRYLNLGAKQIRLSDRRTMRGPMEKREQVFEEDGGRQEITTLRRFYDKNETARLLREAGFSSVKFTDVYDSTLFHQLELLEATDRGFLVMGRREAGGGEG	not soluble
MKVYYPGREWPEEYKRVLEKMKEIIDPVTGDNILDSGVVAGLEVKDRTLKVWLRFESQAEYNILGGAAMAYSKIVGDIMEKFALVMFDNVYVYDLRNNIVGVFEKKK	soluble
MGSDKIHHHHHHMSPLKSFLGVIYMNRSERLNQELIFLSYRQEFHIKELMQEFNISKRTALRDVNSLEQLGLSIYVEPGRYGGYQIMQQQLWVPILLNSQEINALFFALKALSLLSATPFEKSYHTIYKKLMATLSLSNQRQVAKLQRVVNYYSIPNLDAPTHLSDLLTAILDENVVQLTMTTVTAGFQIFDLLYRHGIWFFSGVNLDNNAWGIYRCDTIKVFQTSEQPARYTWKQLAQRQRSYDHHHHNIRYKCALTPPGREHVQKNNYPNMHLTHQNDQDYLIGGYNQDELAYMVDYLLGLGRNVRIIYPEALKTAYLQELQQIQDFY	not soluble
PCCELITNISIPDDKAQNTLSEIEDAISNILGKPVAYIMSNYDYQKNLRFSGSNEGYCFVRLTSIGGINRSNNSLLADKITKILSNHLSVKPRRVYIEFRDCSAQNFAFSGSLFGGSRSHHHHHH	soluble
MNHMKKNILFDGLRSVARIGETAFVAARAGIKYATEKPSNAKLMRETFESLGSTYIKLGQFIASTPSLFPREYVEEFQGCLDQTPTLPFSYIQEVLAEEFEGRDLNQIFASIDETPLASASIAQVHAARLTTGEDVVIKVQKPGVETILYTDLNVVHWATKMLEKAIPKVKFASLSEIVEEIKIRMVREVDFIEEAQNLDDFVEYLKITNNQAATAPKVYHQFSTRRILTMERLYGVSLTDFDIVKKFAKDPSQVLITAMNTWFGSLMLCKSFHADLHAGNLMLLEDGRIGFIDFGIVGQLNPQVWTACLAFMDALQKTDYTAMAENMLKMGMTKTQIDTQVLAQDLERLFSGVLLADPQEILASKPSDLNDIMLDMVAVGERHGIKFPRDFALLFKQMLYFDRFMRVLAPYTDIYADQRLKMVQTIEPQSLLKH	not soluble
MTLRAAVFDLDGVLALPAVFGVLGRTEEALALPRGLLNDAFQKGGPEGATTRLMKGEITLSQWIPLMEENCRKCSETAKVCLPKNFSIKEIFDKAISARKINRPMLQAALMLRKKGFTTAILTNTWLDDRAERDGLAQLMCELKMHFDFLIESCQVGMVKPEPQIYKFLLDTLKASPSEVVFLDDIGANLKPARDLGMVTILVQDTDTALKELEKVTGIQLLNTPAPLPTSCNPSDMSHGYVTVKPRVRLHFVELGSGPAVCLCHGFPESWYSWRYQIPALAQAGYRVLAMDMKGYGESSAPPEIEEYCMEVLCKEMVTFLDKLGLSQAVFIGHDWGGMLVWYMALFYPERVRAVASLNTPFIPANPNMSPLESIKANPVFDYQLYFQEPGVAEAELEQNLSRTFKSLFRASDESVLSMHKVCEAGGLFVNSPEEPSLSRMVTEEEIQFYVQQFKKSGFRGPLNWYRNMERNWKWACKSLGRKILIPALMVTAEKDFVLVPQMSQHMEDWIPHLKRGHIEDCGHWTQMDKPTEVNQILIKWLDSDARNPPVVSKM	soluble
MSLERSLSVTILFQDVPVSVWEINKNTPQPDWVKNCFENNTMVWYDNRLKILVKAINPSPKRDVKLGLRDTMLGYYGGGFVMGNIGDYFDATNGRVLSKKKFYKQYVINEEGHHHHHH	not soluble
MPSISKTKSGERYRAPTDQARKMDRKKENKRNKKDRQQIRQAMAKYCNLDETTSKLLALERQILGLDPQPFHIDVLRKKQKVLTDSINKRRMTLQQGKEDAELKKFNDKINAYQSDCQKLAVLAQQARLAREADPDMIPLPMGDVSTAGPERNNQLLAPAMIKRKVEFQLPPRPVRVAGQKPPGPPCGLAPNFSDSEEEEEEVHDDHYDDIDLAPVPIPEFDNPYQPIHRNYGPPSSYNSMPTRMPHHHHHHHPHASSHYNPMGFQNHHEEAVISSAPQINRSNEPAAPATLSAAPELRNLRRETVKLVPAQLLRRPGDNKTIVPRQAAPVQRRPEVQKQAKNTDEAYNDFMKELDGLI	not soluble
MEVQFKNTRKGYYLNSERIELHKGDVVAVEANPGHDIGTVTLTGKLVKLQMRKHRYNTNNGEPFKIYRIAKQGDLDKYCEAKAREYDTMIQSRQISAELNLDMKIGDVEYQGDGNKAIFYYIADERVDFRQLIRVLAETFHIRVEMKQIGARQEAGRIGGIGPCGRQLCCSAWKMNFVSVNTSAARYQDLALNPQKLTGLCAKLKCCLNYEVDAYVEARKKMPSPEIVLETKESAYHYFKADVFRREVSYSTVPNAPVNLTTISARRAFEVISQNKQGFKPVSLEYDDKKQSSGHELSDILTDNSLTRFDDALSRRRRRNGNGNRDFSDREKAGEPHRTPDSIQPTPRVRSSSRMPSREKSPRPEGGDRRENMRERSRGDARFARPYTNEGGSERMEGARRVVGSGRRPPRQSTPRQEDRQGERKEELEHHHHHH	soluble
VFPSSVYVPDEWEVSREKITLLRELGQGSFGMVYEGNARDIIKGEAETRVAVKTVNESASLRERIEFLNEASVMKGFTCHHVVRLLGVVSKGQPTLVVMELMAHGDLKSYLRSLRPEAENNPGRPPPTLQEMIQMAAEIADGMAYLNAKKFVHRDLAARNCMVAHDFTVKIGDFGMTRDIYETDYYRKGGKGLLPVRWMAPESLKDGVFTTSSDMWSFGVVLWEITSLAEQPYQGLSNEQVLKFVMDGGYLDQPDNCPERVTDLMRMCWQFNPNMRPTFLEIVNLLKDDLHPSFPEVSFFHSEENK	soluble
MGHHHHHHSHMKPIATVGESYQYPPVNWAALLSPLMRLNFGEEIQQLCLEIMVTQAQSSQNAAALLGLWVTPPLIHSLSLNTKRYLLISAPLWIKHISDEQILGFVENLMVAVFKAASPLGSPELCPSALHGLSQAMKLPSPAHHLWSLLSEATGKIFDLLPNKIRRKDLELYISIAKCLLEMTDDDANRIAQVTKSNIEKAAFVKLYLVSQGRFPLVNLTDMLSVAVQHREKEVLAWMILHSLYQARIVSHANTGVLKRMEWLLELMGYMKCCLPVNILSQYGS	not soluble
MHKINKWSVIYNINSTVTRALRDLMQGILQKI	soluble
GSKESPLHGTQNTINKRTQPTFGFTVNWKFSESTTVFTGQCFIDRNGKEVLKTMWLLRSSVNDIGDDWKATRVGIMIFTRLRTQKEGGSGGSARKCSLTGKWTNDLGSNMTIGAVNSRGEFTGTYITAVT	soluble
MSLTVDFSRFPLAPGDRVLDLGCGAGRHAFECYRRGARVVALDQNAEEIREVAKWFAAMEEAGEAPAGATATAMEGDALALPFPDESFDVVIISEVMEHIPDDKGVLAEMVRVLKPGGRIAITVPRYGPEKVCWTLSDAYHEVEGGHIRIYRADQLLTRIREAGLKPYGTHHAHALHSPYWWLKCAFGVDNDKALPVRAYHKLLVWDIMKKPLATRVAEQALNPLIGKSFVAYATKPHLPPVDAEGHHHHHH	soluble

Reference: the DeepSol protein solubility set
